Experimental data taken from publication PMC11543921 (iScience, 2024).

Target: the molecule itself
Assay: MALDI-TOF MS

B1: human recombinant glutamate-oxaloacetate transaminase (enzyme, UniProt P17174 1-413, looked up)
chain: MAPPSVFAEVPQAQPVLVFKLTADFREDPDPRKVNLGVGAYRTDDCHPWVLPVVKKVEQKIANDNSLNHEYLPILGLAEFRSCASRLALGDDSPALKEKRVGGVQSLGGTGALRIGADFLARWYNGTNNKNTPVYVSSPTWENHNAVFSAAGFKDIRSYRYWDAEKRGLDLQGFLNDLENAPEFSIVVLHACAHNPTGIDPTPEQWKQIASVMKHRFLFPFFDSAYQGFASGNLERDAWAIRYFVSEGFEFFCAQSFSKNFGLYNERVGNLTVVGKEPESILQVLSQMEKIVRITWSNPPAQGARIVASTLSNPELFEEWTGNVKTMADRILTMRSELRARLEALKTPGTWNHITDQIGMFSFTGLNPKQVEYLVNEKHIYLLPSGRINVSGLTTKNLDYVATSIHEAVTKIQ
stoichiometry N: 2
